Measurements published in article PMC4851370, “The N-Terminus of the Floral Arabidopsis TGA Transcription Factor PERIANTHIA Mediates Redox-Sensitive DNA-Binding”.
Numbering of substitutions follows the chain as printed.

T1: … (PAN) (Arabidopsis thaliana, UniProt Q9SX27 1-452)
T1 sequence: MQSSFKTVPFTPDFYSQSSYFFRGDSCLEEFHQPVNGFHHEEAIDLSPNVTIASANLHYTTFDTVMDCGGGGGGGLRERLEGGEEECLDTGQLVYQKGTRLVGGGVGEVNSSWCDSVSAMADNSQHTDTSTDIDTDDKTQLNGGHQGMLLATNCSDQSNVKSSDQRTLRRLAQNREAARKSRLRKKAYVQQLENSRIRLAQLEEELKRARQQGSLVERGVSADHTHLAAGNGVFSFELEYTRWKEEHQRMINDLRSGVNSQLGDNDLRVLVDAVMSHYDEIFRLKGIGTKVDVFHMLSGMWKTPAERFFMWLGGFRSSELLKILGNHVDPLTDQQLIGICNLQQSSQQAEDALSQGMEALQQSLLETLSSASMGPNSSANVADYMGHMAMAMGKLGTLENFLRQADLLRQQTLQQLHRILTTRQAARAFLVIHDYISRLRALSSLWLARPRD

T2: TGA1 (Arabidopsis thaliana, UniProt Q39237 1-368)
T2 sequence: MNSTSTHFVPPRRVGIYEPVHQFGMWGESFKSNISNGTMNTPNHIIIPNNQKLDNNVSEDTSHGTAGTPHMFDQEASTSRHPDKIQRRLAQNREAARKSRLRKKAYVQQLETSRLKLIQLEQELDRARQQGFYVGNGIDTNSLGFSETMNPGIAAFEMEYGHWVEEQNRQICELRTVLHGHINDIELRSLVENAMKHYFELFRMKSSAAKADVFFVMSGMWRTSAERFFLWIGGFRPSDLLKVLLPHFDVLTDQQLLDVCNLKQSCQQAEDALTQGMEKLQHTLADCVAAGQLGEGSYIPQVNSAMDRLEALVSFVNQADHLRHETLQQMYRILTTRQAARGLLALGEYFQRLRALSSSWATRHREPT

T3: PANC68SC87S (Arabidopsis thaliana, UniProt Q9SX27 1-452, C68S;C87S)
T3 sequence: T1 sequence with C68S, C87S

T4: TGA2 (Arabidopsis thaliana, UniProt P43273 1-330)
T4 sequence: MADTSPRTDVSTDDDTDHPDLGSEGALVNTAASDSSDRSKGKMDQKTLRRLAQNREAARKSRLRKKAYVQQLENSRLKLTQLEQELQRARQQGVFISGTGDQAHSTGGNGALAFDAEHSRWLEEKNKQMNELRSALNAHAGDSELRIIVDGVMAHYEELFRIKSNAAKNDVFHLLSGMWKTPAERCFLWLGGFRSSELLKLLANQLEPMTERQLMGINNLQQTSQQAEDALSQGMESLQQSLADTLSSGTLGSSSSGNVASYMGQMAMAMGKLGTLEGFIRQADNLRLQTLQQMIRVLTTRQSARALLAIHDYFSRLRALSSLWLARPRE

T5: TGA3 (Arabidopsis thaliana, UniProt Q39234 1-384)
T5 sequence: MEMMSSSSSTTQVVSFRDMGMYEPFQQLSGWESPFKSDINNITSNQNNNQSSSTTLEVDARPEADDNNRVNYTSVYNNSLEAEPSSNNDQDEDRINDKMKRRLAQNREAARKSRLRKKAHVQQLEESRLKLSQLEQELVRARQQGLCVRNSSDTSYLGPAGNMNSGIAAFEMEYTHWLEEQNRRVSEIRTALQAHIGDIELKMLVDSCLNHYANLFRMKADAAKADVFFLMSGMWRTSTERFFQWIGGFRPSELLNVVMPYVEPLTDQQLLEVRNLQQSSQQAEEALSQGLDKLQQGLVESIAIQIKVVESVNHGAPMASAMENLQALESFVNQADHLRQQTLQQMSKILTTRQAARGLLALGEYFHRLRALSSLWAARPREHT

T6: TGA10 (Arabidopsis thaliana, UniProt E3VNM4 1-460)
T6 sequence: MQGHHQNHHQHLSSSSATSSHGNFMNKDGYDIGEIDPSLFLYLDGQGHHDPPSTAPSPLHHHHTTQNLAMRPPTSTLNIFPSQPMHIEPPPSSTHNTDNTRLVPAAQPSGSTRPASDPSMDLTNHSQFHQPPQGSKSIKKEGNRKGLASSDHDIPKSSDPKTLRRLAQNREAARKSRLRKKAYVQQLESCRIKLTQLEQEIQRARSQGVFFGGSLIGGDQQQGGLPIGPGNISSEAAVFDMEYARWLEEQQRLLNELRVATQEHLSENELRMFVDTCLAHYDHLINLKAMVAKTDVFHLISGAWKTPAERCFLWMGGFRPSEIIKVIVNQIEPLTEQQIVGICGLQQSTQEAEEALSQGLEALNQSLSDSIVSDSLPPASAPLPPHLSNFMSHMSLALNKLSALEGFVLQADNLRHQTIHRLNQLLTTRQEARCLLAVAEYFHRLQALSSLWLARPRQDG

T7: PANΔN (Arabidopsis thaliana, UniProt Q9SX27 167-452, del1-166)
T7 sequence: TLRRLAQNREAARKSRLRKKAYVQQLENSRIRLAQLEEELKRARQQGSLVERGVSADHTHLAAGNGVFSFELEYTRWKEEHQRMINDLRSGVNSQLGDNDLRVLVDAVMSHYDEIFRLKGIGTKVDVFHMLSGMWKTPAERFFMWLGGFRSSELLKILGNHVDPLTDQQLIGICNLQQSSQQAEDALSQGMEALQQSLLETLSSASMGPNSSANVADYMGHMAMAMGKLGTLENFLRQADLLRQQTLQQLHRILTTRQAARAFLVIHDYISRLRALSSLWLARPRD

T8: PANC27SC68SC87SC114SC154S (Arabidopsis thaliana, UniProt Q9SX27 1-452, C27S;C68S;C87S;C114S;C154S)
T8 sequence: T1 sequence with C27S, C68S, C87S, C114S, C154S

T9: PANC27SC68SC87SC114SC154SC340S (PAN6xCysmut) (Arabidopsis thaliana, UniProt Q9SX27 1-452, C27S;C68S;C87S;C114S;C154S;C340S)
T9 sequence: T1 sequence with C27S, C68S, C87S, C114S, C154S, C340S

B1: AAGAAT (dsDNA)
DNA 1: AAGAATCTTTGATCACGTCATCACTCAGATATT
DNA 2: AATATCTGAGTGATGACGTGATCAAAGATTCTT
B2: ΔbZIP (dsDNA)
DNA 1: B1 DNA 1 with C16A, G17A
DNA 2: B1 DNA 2 with C17T, G18T

How the values were obtained:
Conditions in all cases: protein: ivt; tags: none; chain copies: 2; label: 5' 32P; blunt
… (PAN) = molecular target: T1, … (PAN); test: EMSA; EMSA as in cited ref 20 (buffer, salt, pH, temperature not given); with or without 0.9 or 20 mM DTT or 2 mM diamide, 30 min in the dark before probe addition
TGA1 = molecular target: T2, TGA1; test: EMSA; 0.9 mM DTT; EMSA as in cited ref 20 (buffer, salt, pH, temperature not given); with or without 0.9 or 20 mM DTT or 2 mM diamide, 30 min in the dark before probe addition
PANC68SC87S = molecular target: T3, PANC68SC87S; test: as above
TGA2 = molecular target: T4, TGA2; test: as above
TGA3 = molecular target: T5, TGA3; test: as above
TGA10 = molecular target: T6, TGA10; test: as above
PANΔN = molecular target: T7, PANΔN; test: EMSA; 2 mM diamide; no reduction; EMSA as in cited ref 20 (buffer, salt, pH, temperature not given); with or without 0.9 or 20 mM DTT or 2 mM diamide, 30 min in the dark before probe addition
[1] = molecular target: T8, PANC27SC68SC87SC114SC154S; test: EMSA; 2 mM diamide; no inhibition; EMSA as in cited ref 20 (buffer, salt, pH, temperature not given); with or without 0.9 or 20 mM DTT or 2 mM diamide, 30 min in the dark before probe addition
[2] = molecular target: T9, PANC27SC68SC87SC114SC154SC340S …; test: as above

Binder	binding result (… (PAN))	binding result (TGA1)	binding result (PANC68SC87S)	binding result (TGA2)	binding result (TGA3)	binding result (TGA10)	binding result (PANΔN)	binding result [1]	binding result [2]
B1	binds	binds	binds	binds	binds	binds	binds	binds	binds
B2	no binding	–	–	–	–	–	–	–	–
